Measured values published in US20260234245A1 (ELTHERA, published 2026).
Residue numbers refer to the chain shown, from its start. Names may count otherwise.

B1: H1L1 (antibody, V domains shown)
VH: QVQLQESGPGLVKPSQTLSLTCTVTGYSITSDYAWNWIRQFPGKGLEWMGYISYSGSFSYHPSLKSRVTISRDTSKNQFSLKLSSVTAADTAVYYCARSFSYGYGFAYWGQGTLVTVSS
VL: DIQMTQSPSSLSASVGDRVTITCKASQDVSSAVAWYQQKPGKAPKLLIYSASYRYTGVPSRFSGSGSGTDFTFTISSLQPEDFATYYCQQHYSTPWTFGGGTKVEIK
notes: also called humanized antibody variant H1L1; parental antibody H1L1
B2: H2L1 (antibody, V domains shown)
VH: B1 VH with K44N, M49I
VL: B1 VL
notes: also called humanized antibody variant H2L1
B3: H2L2 (antibody, V domains shown)
VH: B1 VH with K44N, M49I
VL: B1 VL with Q3V, K42Q, A43S, S60D, V104L
notes: also called humanized antibody variant H2L2
B4: H4L2 (antibody, V domains shown)
VH: B1 VH with K44N, G45K, L46V
VL: B1 VL with Q3V, K42Q, A43S, S60D, V104L
notes: also called humanized antibody variant H4L2
B5: H1L2 (antibody, V domains shown)
VH: B1 VH
VL: B1 VL with Q3V, K42Q, A43S, S60D, V104L
notes: also called humanized antibody variant H1L2
B6: H4L1 (antibody, V domains shown)
VH: B1 VH with K44N, G45K, L46V
VL: B1 VL
notes: also called humanized antibody variant H4L1
B7: H3L2 (antibody, V domains shown)
VH: B1 VH with K44N
VL: B1 VL with Q3V, K42Q, A43S, S60D, V104L
notes: also called humanized antibody variant H3L2
B8: H3L1 (antibody, V domains shown)
VH: B1 VH with K44N
VL: B1 VL
notes: also called humanized antibody variant H3L1
B9: Humanized optimized antibody “AFF4” (human IgG format; with G236A/S239D/A330L/I332E mutations) (antibody)
heavy: QVQLQESGPGLVKPSQTLSLTCTVTGYSITSDYTWNWIRQFPGKGLEWMGYISYSGSYSYNPSLKSRVTISRDTSKNQFSLKLSSVTAADTAVYYCARSFSYSYGFAYWGQGTLVTVSSASTKGPSVFPLAPSSKSTSGGTAALGCLVKDYFPEPVTVSWNSGALTSGVHTFPAVLQSSGLYSLSSVVTVPSSSLGTQTYICNVNHKPSNTKVDKRVEPKSCDKTHTCPPCPAPELLAGPDVFLFPPKPKDTLMISRTPEVTCVVVDVSHEDPEVKFNWYVDGVEVHNAKTKPREEQYNSTYRVVSVLTVLHQDWLNGKEYKCKVSNKALPLPEEKTISKAKGQPREPQVYTLPPSREEMTKNQVSLTCLVKGFYPSDIAVEWESNGQPENNYKTTPPVLDSDGSFFLYSKLTVDKSRWQQGNVFSCSVMHEALHNHYTQKSLSLSPG
light: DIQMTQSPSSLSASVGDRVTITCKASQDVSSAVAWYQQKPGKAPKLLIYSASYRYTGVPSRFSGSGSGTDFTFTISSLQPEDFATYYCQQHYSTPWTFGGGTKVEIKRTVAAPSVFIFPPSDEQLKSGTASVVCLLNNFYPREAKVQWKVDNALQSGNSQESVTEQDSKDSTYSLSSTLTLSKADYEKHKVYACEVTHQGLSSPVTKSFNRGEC
notes: also called AFF4 antibody
B10: AFF10 (antibody, human IgG1, V domains shown)
VH: B1 VH with A34T, F58Y
VL: B1 VL
B11: AFF3 (antibody, human IgG1, V domains shown)
VH: B1 VH with F58Y, H61N, G103S
VL: B1 VL
B12: AFF2 (antibody, human IgG1, V domains shown)
VH: B1 VH with A34T, H61N, G103S
VL: B1 VL
B13: AFF5 (antibody, human IgG1, V domains shown)
VH: B1 VH with A34T, F58Y, F100L
VL: B1 VL
B14: AFF1 (antibody, human IgG1, V domains shown)
VH: B1 VH with H61N, G103S
VL: B1 VL
B15: AFF9 (antibody, human IgG1, V domains shown)
VH: B1 VH with F58Y, H61N, G103A
VL: B1 VL
B16: AFF7 (antibody, human IgG1, V domains shown)
VH: B1 VH with H61N, G103S
VL: B1 VL with T56I
B17: AFF8 (antibody, human IgG1, V domains shown)
VH: B1 VH with A34T, H61N, G103S
VL: B1 VL with T56I
B18: AFF6 (antibody, human IgG1, V domains shown)
VH: B1 VH with A34T, H61N, F100L
VL: B1 VL

Target: T1, soluble His-tagged human L1CAM (extracellular portion, amino acids 20 to 1120) (human, UniProt P32004 20-1120)
T1 construct: range 20-1120; Expressed in HEK cells with an N-terminal leader peptide for secretion (not part of the assayed protein)
T1 sequence (P32004 other isoform, or with tags, fused parts or gaps limits assumed): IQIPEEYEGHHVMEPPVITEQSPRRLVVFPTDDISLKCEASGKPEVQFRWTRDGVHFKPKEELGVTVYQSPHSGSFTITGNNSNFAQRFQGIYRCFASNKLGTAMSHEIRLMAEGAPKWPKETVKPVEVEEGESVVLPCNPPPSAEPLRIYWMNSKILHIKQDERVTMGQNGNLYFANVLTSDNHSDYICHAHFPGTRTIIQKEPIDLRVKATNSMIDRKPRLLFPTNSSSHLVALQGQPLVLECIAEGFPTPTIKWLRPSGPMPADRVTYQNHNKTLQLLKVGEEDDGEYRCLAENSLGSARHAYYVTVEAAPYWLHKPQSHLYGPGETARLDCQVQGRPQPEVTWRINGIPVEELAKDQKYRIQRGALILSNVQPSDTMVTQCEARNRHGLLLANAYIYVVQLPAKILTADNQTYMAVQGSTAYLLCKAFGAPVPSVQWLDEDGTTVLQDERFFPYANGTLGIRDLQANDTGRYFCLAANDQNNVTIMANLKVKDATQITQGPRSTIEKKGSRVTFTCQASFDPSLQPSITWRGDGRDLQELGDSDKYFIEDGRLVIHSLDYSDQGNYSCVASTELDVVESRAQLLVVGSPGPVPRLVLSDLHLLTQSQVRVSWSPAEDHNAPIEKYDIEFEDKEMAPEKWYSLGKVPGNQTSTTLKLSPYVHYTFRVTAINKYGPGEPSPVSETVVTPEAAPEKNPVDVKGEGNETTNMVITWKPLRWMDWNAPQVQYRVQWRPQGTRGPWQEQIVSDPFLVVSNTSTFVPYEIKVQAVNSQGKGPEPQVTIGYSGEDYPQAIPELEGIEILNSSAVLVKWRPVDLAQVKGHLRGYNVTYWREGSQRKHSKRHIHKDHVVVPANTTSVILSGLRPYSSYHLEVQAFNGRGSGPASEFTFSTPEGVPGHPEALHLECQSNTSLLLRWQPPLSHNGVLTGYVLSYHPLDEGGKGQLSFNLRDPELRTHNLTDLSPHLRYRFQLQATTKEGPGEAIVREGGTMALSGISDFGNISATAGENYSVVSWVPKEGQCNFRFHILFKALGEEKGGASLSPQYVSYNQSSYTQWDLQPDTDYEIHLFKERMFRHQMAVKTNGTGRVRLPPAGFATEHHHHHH
Assay: SPR (Biacore T200), antibody captured on C1 Protein A chip, His-tagged human L1CAM as analyte 10, 20, 40 nM, 1:1 Langmuir fit
Experimental: (§1) Monovalent kinetic binding constants of the eight humanized antibody variants towards human L1CAM were determined by surface plasmon resonance using a Biacore T200 instrument. Antibodies were captured via their Fc regions on a C1 Protein A Chip (GE Healthcare), and soluble His-tagged human L1CAM was injected as analyte in 3 different concentrations (10, 20 and 40 nM), using 10 mM HEPES/150 mM NaCl/3 mM EDTA/0.05% Tween 20 as running buffer. Detected resonance units (sensorgrams) were fitted to a 1:1 Langmuir binding model and association (kₐ) and dissociation (kd) rate constants as well as the affinity constants (KD) were calculated.

Row | Binder | Kd [nM] | koff [s⁻¹] | kon [M⁻¹ s⁻¹]
1 | B1 | 4.5 | 0.00079 | 177000
2 | B2 | 4.4 | 0.000751 | 170000
3 | B3 | 6 | 0.000867 | 144000
4 | B4 | 6.3 | 0.000859 | 137000
5 | B5 | 6.1 | 0.000872 | 144000
6 | B6 | 4.7 | 0.000847 | 179000
7 | B7 | 6.8 | 0.000887 | 131000
8 | B8 | 5.1 | 0.000858 | 168000

Target: T1, soluble His-tagged human L1CAM …
Assay: SPR (Biacore T200), antibody captured on Protein A chip, His-tagged human L1CAM as analyte 5, 10, 20, 40 nM, 1:1 Langmuir fit
Experimental: as §1
The monovalent kinetic binding constants towards human L1CAM were determined by surface plasmon resonance using a Biacore T200 instrument as described in Example 4, except that soluble His-tagged human L1CAM was injected in 4 different concentrations (5, 10, 20 and 40 nM).

Row | Binder | Kd [nM] | koff [s⁻¹] | kon [M⁻¹ s⁻¹]
9 | B9 | 0.2 | 8.45e-05 | 416000
10 | B10 | 0.99 | 0.000251 | 255000
11 | B11 | 0.22 | 6.52e-05 | 299000
12 | B12 | 0.31 | 0.000126 | 411000
13 | B13 | 0.72 | 0.000252 | 349000
14 | B14 | 0.36 | 0.000104 | 290000
15 | B15 | 0.36 | 9.28e-05 | 258000
16 | B16 | 0.32 | 8.83e-05 | 273000
17 | B17 | 0.3 | 0.000116 | 383000
18 | B18 | 0.98 | 0.000337 | 345000
